From publication PMC3160658 come the findings set out here.

In data set [1] the target is RAD52;RPA (Homo sapiens;human?, UniProt P43351;P27694;P15927;P35244 1-418;1-616;1-270;1-121, |). Kind of data set: FRET titration.
In data set [2] the target is T1, RAD52 Y104D (Homo sapiens, UniProt P43351 1-418, Y104D).
T1 sequence: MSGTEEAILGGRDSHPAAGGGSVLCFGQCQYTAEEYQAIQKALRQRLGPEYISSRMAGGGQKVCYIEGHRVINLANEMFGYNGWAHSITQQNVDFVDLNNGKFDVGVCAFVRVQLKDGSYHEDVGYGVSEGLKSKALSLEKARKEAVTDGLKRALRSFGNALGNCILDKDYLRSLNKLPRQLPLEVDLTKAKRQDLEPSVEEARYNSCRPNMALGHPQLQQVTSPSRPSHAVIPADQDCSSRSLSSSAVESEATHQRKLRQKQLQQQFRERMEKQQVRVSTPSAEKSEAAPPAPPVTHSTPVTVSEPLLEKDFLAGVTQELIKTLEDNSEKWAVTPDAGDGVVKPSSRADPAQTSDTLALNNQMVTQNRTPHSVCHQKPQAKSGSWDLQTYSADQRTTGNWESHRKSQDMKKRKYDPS
Kind of data set: EMSA. In general terms: In EMSA bound probe runs differently from free probe, usually more slowly.

Sequence of RAD52;RPA (P27694 whole entry, chain 2 of 3): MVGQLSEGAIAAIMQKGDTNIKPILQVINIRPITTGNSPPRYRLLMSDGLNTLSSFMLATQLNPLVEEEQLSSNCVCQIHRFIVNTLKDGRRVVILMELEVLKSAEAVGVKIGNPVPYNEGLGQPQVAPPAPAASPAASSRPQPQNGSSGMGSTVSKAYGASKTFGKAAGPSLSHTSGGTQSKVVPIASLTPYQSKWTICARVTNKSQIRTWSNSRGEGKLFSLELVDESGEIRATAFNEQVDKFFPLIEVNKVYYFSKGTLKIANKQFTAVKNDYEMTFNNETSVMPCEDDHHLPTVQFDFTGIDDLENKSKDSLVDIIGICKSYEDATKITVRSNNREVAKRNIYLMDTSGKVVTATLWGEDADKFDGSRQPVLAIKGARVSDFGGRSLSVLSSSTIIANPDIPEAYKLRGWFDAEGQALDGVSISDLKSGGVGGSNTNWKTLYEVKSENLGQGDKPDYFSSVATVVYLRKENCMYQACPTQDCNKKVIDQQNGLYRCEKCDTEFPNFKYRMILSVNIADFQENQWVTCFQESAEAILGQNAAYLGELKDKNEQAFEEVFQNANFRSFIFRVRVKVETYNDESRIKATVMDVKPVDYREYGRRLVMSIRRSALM
Sequence of RAD52;RPA (P15927 whole entry, chain 3 of 3): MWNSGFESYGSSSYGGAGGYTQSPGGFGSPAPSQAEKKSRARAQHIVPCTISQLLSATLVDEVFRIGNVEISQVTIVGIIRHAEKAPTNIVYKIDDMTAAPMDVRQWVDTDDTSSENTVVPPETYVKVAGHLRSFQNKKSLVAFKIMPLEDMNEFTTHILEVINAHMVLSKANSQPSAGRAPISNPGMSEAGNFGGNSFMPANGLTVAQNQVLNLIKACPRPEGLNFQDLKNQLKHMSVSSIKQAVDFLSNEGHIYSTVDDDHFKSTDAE
Sequence of RAD52;RPA (P35244 whole entry, chain 4 of 3): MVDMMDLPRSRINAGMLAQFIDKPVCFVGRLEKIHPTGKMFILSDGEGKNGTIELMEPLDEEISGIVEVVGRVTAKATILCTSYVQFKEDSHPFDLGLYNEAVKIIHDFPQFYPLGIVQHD

B1: Cy5-(dT)30-Cy3 (ssDNA)
DNA: TTTTTTTTTTTTTTTTTTTTTTTTTTTTTT
In the case of B1, the binding result in data set [1] and in data set [2] was “binds” in each case.
